Data reported in paper doi:10.1101/2025.10.03.680274.

Tests used:
Assay in all cases: split reporter
[1] = target: ADGRL4-CTF1 I411A (human) (UniProt Q9HBW9)
[2] = target: ADGRL4-CTF1 S414A (human) (UniProt Q9HBW9)
[3] = target: ADGRL4-CTF1 H408A (human) (UniProt Q9HBW9)
[4] = target: ADGRL4-CTF1 L412A (human) (UniProt Q9HBW9)
[5] = target: ADGRL4-CTF1 F409A (human) (UniProt Q9HBW9)

reduction of Gq coupling relative to wild-type CTF1 [1]: > 50%
reduction of Gq coupling relative to wild-type CTF1 [2]: > 50%
reduction of Gq coupling relative to wild-type CTF1 [3]: > 50%
reduction of Gq coupling relative to wild-type CTF1 [4]: > 50%
Gq coupling as percent of wild-type CTF1 [5]: 12%
Substance: LgBiT-mini-Gq (mini-Gs/q version 70) (domain or fragment)
